What follows are sequences tested against HLA-A*11:01 (assay: IEDB peptide-MHC binding, purified MHC/competitive/radioactivity; ≥ and ≤ were set here for values at or beyond the usual limits of such assays). Conditions: source organism: Hepatitis B virus.
AVNHYFKTR showed an IC50 of 61 nM. For CALPFTSAR, the IC50 was 316 nM. GSTHVSWPK was tested, and the IC50 was 3.1 nM. For GTDNSVVLSR, the IC50 was 107 nM. IMPARFYPK gave an IC50 of 4.1 nM. Work on KVFVLGGCR yielded an IC50 of 6.5 nM. Sequence LSLDVSAAFY has an IC50 of 545 nM. RLADEGLNR gave an IC50 of 245 nM. TTDLEAYFK showed an IC50 of 6.5 nM.

Same assay, conditions: source organism: Homo sapiens
ATQIPSYKK showed an IC50 of 128 nM. Work on ESLFRAVITK yielded an IC50 of 1150 nM.

Same assay, conditions: source organism: Human immunodeficiency virus 1
ASQIYAGIK was tested, and the IC50 was 18 nM. For AVDLSHFLK, the IC50 was 5 nM. Sequence AVFIHNFKRK has an IC50 of 7.1 nM. GIPHPAGLK gave an IC50 of 35 nM. For KVLFLDGIDK, the IC50 was 7.7 nM. For KVYLAWVPAHK, the IC50 was 7.6 nM. For MTKILEPFR, the IC50 was 378 nM. QIYQEPFKNLK was tested, and the IC50 was 21 nM. In the case of QMAVFIHNFK, the IC50 is reported as 8.4 nM. Sequence RAKWNNTLK has an IC50 of 188 nM. Sequence TVQPIVLPEK has an IC50 of 2.4 nM. Work on YLAWVPAHK yielded an IC50 of 106 nM.

Same assay, conditions: source organism: Influenza A virus (A/Puerto Rico/8/1934(H1N1))
GTKVVPRGK was tested, and the IC50 was 72 nM. GVTAACSHAGK showed an IC50 of 30 nM. LTEKEGSYPK was tested, and the IC50 was 121 nM. NVKNLYEKVK was tested, and the IC50 was 51 nM. PVTIGECPK gave an IC50 of 2.6 nM. RMGVQMQRFK gave an IC50 of 94 nM.

Same assay, conditions: source organism: Plasmodium falciparum
LACAGLAYK showed an IC50 of 207 nM.

Reference: the Immune Epitope Database (IEDB)
